Results on three molecules are retold here after US12104181B2, “Compositions and methods for treating viral infections targeting TRIM7” (THE BOARD OF REGENTS OF THE UNIVERSITY OF TEXAS SYSTEM, priority 2021, dated 2024).

This assay deals with coxsackievirus B3 (CVB3-GFP). The format is cell-based. The following applies: HeLa cells, replicate R1; for Percent Infected R1: GFP-positive cells within RFP-positive gate.

B1: RNF13: human RING type E3 ligase expressed from lentiviral vector (protein, UniProt O43567 35-381, looked up)
E3 ubiquitin-protein ligase …: DILAYNFENASQTFDDLPARFGYRLPAEGLKGFLINSKPENACEPIVPPPVKDNSSGTFIVLIRRLDCNFDIKVLNAQRAGYKAAIVHNVDSDDLISMGSNDIEVLKKIDIPSVFIGESSANSLKDEFTYEKGGHLILVPEFSLPLEYYLIPFLIIVGICLILIVIFMITKFVQDRHRARRNRLRKDQLKKLPVHKFKKGDEYDVCAICLDEYEDGDKLRILPCSHAYHCKCVDPWLTKTKKTCPVCKQKVVPSQGDSDSDTDSSQEENEVTEHTPLLRPLASVSAQSFGALSESRSHQNMTESSDYEEDDNEDTDSSDAENEINEHDVVVQLQPNGERDYNIANTV
As for B1, the “Percent Infected R1” value stood at 97.9% and the “Z score R1” value is 0.12.

B2: RNF10: human RING type E3 ligase expressed from lentiviral vector (protein, UniProt Q8N5U6 1-811, looked up)
E3 ubiquitin-protein ligase …: MPLSSPNAAATASDMDKNSGSNSSSASSGSSKGQQPPRSASAGPAGESKPKSDGKNSSGSKRYNRKRELSYPKNESFNNQSRRSSSQKSKTFNKMPPQRGGGSSKLFSSSFNGGRRDEVAEAQRAEFSPAQFSGPKKINLNHLLNFTFEPRGQTGHFEGSGHGSWGKRNKWGHKPFNKELFLQANCQFVVSEDQDYTAHFADPDTLVNWDFVEQVRICSHEVPSCPICLYPPTAAKITRCGHIFCWACILHYLSLSEKTWSKCPICYSSVHKKDLKSVVATESHQYVVGDTITMQLMKREKGVLVALPKSKWMNVDHPIHLGDEQHSQYSKLLLASKEQVLHRVVLEEKVALEQQLAEEKHTPESCFIEAAIQELKTREEALSGLAGSRREVTGVVAALEQLVLMAPLAKESVFQPRKGVLEYLSAFDEETTEVCSLDTPSRPLALPLVEEEEAVSEPEPEGLPEACDDLELADDNLKEGTICTESSQQEPITKSGFTRLSSSPCYYFYQAEDGQHMFLHPVNVRCLVREYGSLERSPEKISATVVEIAGYSMSEDVRQRHRYLSHLPLTCEFSICELALQPPVVSKETLEMFSDDIEKRKRQRQKKAREERRRERRIEIEENKKQGKYPEVHIPLENLQQFPAFNSYTCSSDSALGPTSTEGHGALSISPLSRSPGSHADFLLTPLSPTASQGSPSFCVGSLEEDSPFPSFAQMLRVGKAKADVWPKTAPKKDENSLVPPAPVDSDGESDNSDRVPVPSFQNSFSQAIEAAFMKLDTPATSDPLSEEKGGKKRKKQKQKLLFSTSVVHTK
modifications: lentiviral expression
notes: human RING type E3 ligase expressed from lentiviral vector
Turning to B2, the “Percent Infected R1” value turned out to be 88.9% and the “Z score R1” value stood at 0.

B3: RFFL: human RING type E3 ligase expressed from lentiviral vector (protein, UniProt Q8WZ73 1-363, looked up)
E3 ubiquitin-protein ligase …: MWATCCNWFCLDGQPEEVPPPQGARMQAYSNPGYSSFPSPTGLEPSCKSCGAHFANTARKQTCLDCKKNFCMTCSSQVGNGPRLCLLCQRFRATAFQREELMKMKVKDLRDYLSLHDISTEMCREKEELVLLVLGQQPVISQEDRTRASTLSPDFPEQQAFLTQPHSSMVPPTSPNLPSSSAQATSVPPAQVQENQQANGHVSQDQEEPVYLESVARVPAEDETQSIDSEDSFVPGRRASLSDLTDLEDIEGLTVRQLKEILARNFVNYKGCCEKWELMERVTRLYKDQKGLQHLVSGAEDQNGGAVPSGLEENLCKICMDSPIDCVLLECGHMVTCTKCGKRMNECPICRQYVIRAVHVFRS
As for B3, the “Percent Infected R1” value turned out to be 88.2% and the “Z score R1” value is listed as −0.01.
